The values that follow come from publication PMC3899018, “Biochemical and Structural Studies of Conserved Maf Proteins Revealed Nucleotide Pyrophosphatases with a Preference for Modified Nucleotides” (Chemistry & Biology, 2013).

Holding throughout (test): pyrophosphatase-coupled Pi release assay
Substrate in series [1]: Cc1cn([C@@H]2O[C@H](COP(=O)(O)OP(=O)(O)OP(=O)(O)O)[C@@H](O)[C@H]2O)c(=O)[nH]c1=O
The format is biochemical, Escherichia coli. Conditions: 2 mM Co2+, 37°C. An excerpt:
(§1) pyrophosphatase-coupled Pi release assay on YhdE

Substrate in series [2]: Cc1cn([C@@H]2O[C@H](COP(=O)(O)OP(=O)(O)OP(=O)(O)O)[C@@H](O)[C@H]2O)c(=O)nc1N
The format is biochemical, Escherichia coli. Conditions: 2 mM Co2+, 37°C.
From the text: as §1

Substrate in series [3]: Cc1cn([C@H]2C[C@H](O)[C@@H](COP(=O)(O)OP(=O)(O)OP(=O)(O)O)O2)c(=O)[nH]c1=O
The series is classed as biochemical, Escherichia coli. Conditions: 2 mM Co2+, 37°C.
From the text: as §1

Substrate in series [4]: O=c1[nH]cc([C@@H]2O[C@H](COP(=O)(O)OP(=O)(O)OP(=O)(O)O)[C@@H](O)[C@H]2O)c(=O)[nH]1
The format is biochemical, Escherichia coli. Conditions: 2 mM Co2+, 37°C.
From the text: as §1

Substrate in series [5]: Nc1ccn([C@@H]2O[C@H](COP(=O)(O)OP(=O)(O)OP(=O)(O)O)[C@@H](O)[C@H]2O)c(=O)n1
The format is biochemical, Homo sapiens. Conditions: 2 mM Co2+, 37°C. An excerpt: (§2) pyrophosphatase-coupled Pi release assay on ASMTL-Maf

Substrate in series [6]: CNc1ccn([C@H]2C[C@H](O)[C@@H](COP(=O)(O)OP(=O)(O)OP(=O)(O)O)O2)c(=O)n1
The series is classed as biochemical, Homo sapiens. Conditions: 2 mM Co2+, 37°C.
From the text: as §2

Substrate in series [7]: Cc1cn([C@@H]2O[C@H](COP(=O)(O)OP(=O)(O)OP(=O)(O)O)[C@@H](O)[C@H]2O)c(=O)[nH]c1=O
The series is classed as biochemical, Homo sapiens. Conditions: 2 mM Co2+, 37°C.
From the text: as §2

Substrate in series [8]: Nc1nc2c([nH]c(=O)n2[C@@H]2O[C@H](CO[P@@](=O)(O)O[P@@](=O)(O)OP(=O)(O)O)[C@@H](O)[C@H]2O)c(=O)[nH]1
The series is classed as biochemical, Homo sapiens. Conditions: 2 mM Co2+, 37°C.
From the text: as §2

Substrate in series [9]: Nc1ccn([C@@H]2O[C@H](COP(=O)(O)OP(=O)(O)OP(=O)(O)O)[C@@H](O)[C@H]2O)c(=O)n1
The series is classed as biochemical, Bacillus subtilis. Conditions: 2 mM Co2+, 30°C. An excerpt:
(§3) pyrophosphatase-coupled Pi release assay on BSU28050

Substrate in series [10]: Cc1cn([C@@H]2O[C@H](COP(=O)(O)OP(=O)(O)OP(=O)(O)O)[C@@H](O)[C@H]2O)c(=O)[nH]c1=O
The format is biochemical, Bacillus subtilis. Conditions: 2 mM Co2+, 30°C.
From the text: as §3

Substrate in series [11]: Cc1cn([C@@H]2O[C@H](COP(=O)(O)OP(=O)(O)OP(=O)(O)O)[C@@H](O)[C@H]2O)c(=O)nc1N
The format is biochemical, Bacillus subtilis. Conditions: 2 mM Co2+, 30°C.
From the text: as §3

Substrate in series [12]: O=c1[nH]cc([C@@H]2O[C@H](COP(=O)(O)OP(=O)(O)OP(=O)(O)O)[C@@H](O)[C@H]2O)c(=O)[nH]1
The series is classed as biochemical, Bacillus subtilis. Conditions: 2 mM Co2+, 30°C.
From the text: as §3

Substrate in series [13]: Cc1cn([C@@H]2O[C@H](COP(=O)(O)OP(=O)(O)OP(=O)(O)O)[C@@H](O)[C@H]2O)c(=O)[nH]c1=O
The format is biochemical, Saccharomyces cerevisiae. Conditions: 2 mM Co2+, 30°C. An excerpt: (§4) pyrophosphatase-coupled Pi release assay on YOR111W

Substrate in series [14]: O=c1ccn([C@@H]2O[C@H](COP(=O)(O)OP(=O)(O)OP(=O)(O)O)[C@@H](O)[C@H]2O)c(=O)[nH]1
The series is classed as biochemical, Saccharomyces cerevisiae. Conditions: 2 mM Co2+, 30°C.
From the text: as §4

Substrate in series [15]: O=c1[nH]cc([C@@H]2O[C@H](COP(=O)(O)OP(=O)(O)OP(=O)(O)O)[C@@H](O)[C@H]2O)c(=O)[nH]1
The format is biochemical, Saccharomyces cerevisiae. Conditions: 2 mM Co2+, 30°C.
From the text: as §4

Substrate in series [16]: C[n+]1cn([C@@H]2O[C@H](COP(=O)(O)OP(=O)(O)OP(=O)(O)O)[C@@H](O)[C@H]2O)c2nc(N)[nH]c(=O)c21
The format is biochemical, Escherichia coli. Conditions: 2 mM Co2+, 37°C. An excerpt:
pyrophosphatase-coupled Pi release assay on YceF

Substrate in series [17]: C[n+]1cn([C@@H]2O[C@H](COP(=O)(O)OP(=O)(O)OP(=O)(O)O)[C@@H](O)[C@H]2O)c2nc(N)[nH]c(=O)c21
The format is biochemical, Salmonella enterica. Conditions: 2 mM Co2+, 37°C. An excerpt: pyrophosphatase-coupled Pi release assay on STM1189

B1: YhdE (Escherichia coli K-12) (protein)
chain: MTSLYLASGSPRRQELLAQLGVTFERIVTGIEEQRQPQESAQQYVVRLAREKARAGVAQTAKDLPVLGADTIVILNGEVLEKPRDAEHAAQMLRKLSGQTHQVMTAVALADSQHILDCLVVTDVTFRTLTDEDIAGYVASDEPLDKAGAYGIQGLGGCFVRKINGSYHAVVGLPLVETYELLSNFNALREKRDKHDG
notes: full-length recombinant, expressed in E. coli; predicted monomer mass 24 kDa; mixture of dimers and tetramers
A word on the Km: it is the substrate concentration at which the rate is half of its maximum. Usually kcat stands for the maximal rate divided by the concentration of active sites. Broadly, the kcat/Km is the second-order rate constant that governs catalysis at low substrate concentration. As to B1, the Km in series [1] worked out at 32.0 ± 2.2 µM; in series [2], 44.8 ± 2.2 µM; in [3], 53.0 ± 2.0 µM; in series [4] it was 47.2 ± 1.5 µM. Further, the kcat turned out to be 18.2 ± 0.7 s⁻¹ in [1], 9.2 ± 0.2 s⁻¹ in [2], 15.4 ± 0.3 s⁻¹ in [3] and 10.5 ± 0.2 s⁻¹ in series [4]. Besides, the kcat/Km was determined as 570000 M⁻¹ s⁻¹ in series [1], 210000 M⁻¹ s⁻¹ in [2], 290000 M⁻¹ s⁻¹ in series [3] and 220000 M⁻¹ s⁻¹ in [4].

B2: ASMTL-Maf (Homo sapiens) (protein)
chain: MVLCPVIGKLLHKRVVLASASPRRQEILSNAGLRFEVVPSKFKEKLDKASFATPYGYAMETAKQKALEVANRLYQKDLRAPDVVIGADTIVTVGGLILEKPVDKQDAYRMLSRLSGREHSVFTGVAIVHCSSKDHQLDTRVSEFYEETKVKFSELSEELLWEYVHSGEPMDKAGGYGIQALGGMLVESVHGDFLNVVGFPLNHFCKQLVKLYYPPRPEDLRRSVKHDSIPAADTFEDLS
notes: N-terminal Maf domain, residues 1-239, recombinant from E. coli; dimer
Turning to B2, the Michaelis constant (Km) in series [5] was determined as 17.4 ± 0.8 µM; in series [6], 10.3 ± 0.7 µM; in series [7], 16.1 ± 1.5 µM; in series [8], 10.7 ± 0.6 µM. Also, the turnover number (kcat) in series [5] stood at 0.8 ± 0.02 s⁻¹; in series [6], 0.3 ± 0.01 s⁻¹; in [7] it was 1.5 ± 0.1 s⁻¹; in series [8], 0.2 ± 0.01 s⁻¹. Also, the kcat/Km in [5] came to 46000 M⁻¹ s⁻¹; in series [6] it was 29000 M⁻¹ s⁻¹; in series [7], 93000 M⁻¹ s⁻¹; in series [8], 19000 M⁻¹ s⁻¹.

B3: BSU28050 (Bacillus subtilis subsp. subtilis str. 168) (protein)
chain: MTKPLILASQSPRRKELLDLLQLPYSIIVSEVEEKLNRNFSPEENVQWLAKQKAKAVADLHPHAIVIGADTMVCLDGECLGKPQDQEEAASMLRRLSGRSHSVITAVSIQAENHSETFYDKTEVAFWSLSEEEIWTYIETKEPMDKAGAYGIQGRGALFVKKIDGDYYSVMGLPISKTMRALRHFDIRA
notes: full-length recombinant, expressed in E. coli; dimer
Take B3: the Km in series [9] was 25.0 ± 0.8 µM; in series [10], 4.7 ± 0.2 µM; in series [11] it was 7.8 ± 0.2 µM; in [12], 5.7 ± 0.3 µM. For the same protein, the kcat was 7.1 ± 0.1 s⁻¹ in series [9], 2.4 ± 0.1 s⁻¹ in series [10], 8.5 ± 0.1 s⁻¹ in series [11] and 7.2 ± 0.2 s⁻¹ in series [12]. Also, the kcat/Km in [9] stood at 280000 M⁻¹ s⁻¹; in [10], 510000 M⁻¹ s⁻¹; in series [11], 1.1e+06 M⁻¹ s⁻¹; in series [12], 1.3e+06 M⁻¹ s⁻¹.

B4: YOR111W (Saccharomyces cerevisiae S288C) (protein)
chain: MSGNSQLPPDVIGFICSKYDIILASTSPRRYEILHDIMGITDLKTMVSTFEENLDKMNYSTDPIGYVCDTSWHKAQNIIEILTDYEDENPNEIDKPKLIICADTIIIDKSGRIYEKPKTKEVQKKFLMKFCYEDDEPVNVVTAVTLIKWYGRENFELVPFRDETKVYFDNKIPLRILEEYVESGDGLEVGGGFKIQGQGAILIEKIEGDYYNVVGLPLNKTFKGLYAEANSI
notes: full-length recombinant, expressed in E. coli
For the protein B4, in series [13], the Km amounted to 13.0 ± 0.3 µM, the kcat worked out at 2.2 ± 0.1 s⁻¹ and the kcat/Km turned out to be 170000 M⁻¹ s⁻¹. Further, in series [14], the Km is 29.7 ± 1.4 µM, the kcat worked out at 2.6 ± 0.1 s⁻¹ and the kcat/Km came out at 88000 M⁻¹ s⁻¹. For the same protein, in series [15], the Km is 20 ± 0.4 µM, the kcat turned out to be 5.3 ± 0.1 s⁻¹ and the specificity constant (kcat/Km) amounted to 270000 M⁻¹ s⁻¹.

B5: YceF (Escherichia coli K-12) (protein)
chain: MPKLILASTSPWRRALLEKLQISFECAAPEVDETPRSDESPRQLVLRLAQEKAQSLASRYPDHLIIGSDQVCVLDGEITGKPLTEENARLQLRKASGNIVTFYTGLALFNSANGHLQTEVEPFDVHFRHLSEAEIDNYVRKEHPLHCAGSFKSEGFGITLFERLEGRDPNTLVGLPLIALCQMLRREGKNPLMG
notes: full-length recombinant, expressed in E. coli; mixture of monomers and dimers
Take B5: in [16], the Michaelis constant (Km) worked out at 32.8 ± 3.1 µM, the kcat worked out at 1.2 ± 0.1 s⁻¹ and the kcat/Km was determined as 37000 M⁻¹ s⁻¹.

B6: STM1189 (Salmonella enterica subsp. enterica serovar Typhimurium str. LT2) (protein)
chain: MPRLILASTSPWRRALLEKLTIPFECAAPDVDETPMPGEAPRQLVLRLAQAKAQSLAARFPNHLIIGSDQICVLDGEITGKPLTEEKARQQLAKASGNIVTFYTGLALYNSASGHLQTEVEPFDVHFRHLSEAEIDDYVRKEHPLHCAGSFKSEGLGIALFERLEGRDPNTLIGLPLIALCQMLRREGFNPLQQ
notes: as for B4
Regarding B6, in series [17], the Km is 30.9 ± 1.2 µM, the catalytic constant (kcat) was found to be 1.5 ± 0.1 s⁻¹ and the kcat/Km worked out at 49000 M⁻¹ s⁻¹.
